Results taken from paper PMC3082519, “Molecular Determinants and Genetic Modifiers of Aggregation and Toxicity for the ALS Disease Protein FUS/TLS”.

Molecular target: GST-FUS (Homo sapiens, UniProt P35637 1-526)
Test: EMSA; 0.15-5 uM GST-FUS; yeast tRNA 25 ng, heparin added after binding; 10 mM Tris pH 7.5, 75 mM KCl, 4 mM MgCl2, 25 mM phosphocreatine, 1.25 mM ATP, 1.3% polyvinyl alcohol, 25 ng yeast tRNA, 0.8 mg BSA, 1 mM DTT, RNasin, 0.1 mM EDTA, 10% glycerol; 10 ul, 20 min at 30 C; then heparin 0.5 ug/ml; 4.5% native gel
Settings: protein: recombinant; tags: N-terminal GST, TEV-cleavable (GST-TEV-FUS); label: 32P-UTP; single strand

Chain of GST-FUS (P35637 whole entry): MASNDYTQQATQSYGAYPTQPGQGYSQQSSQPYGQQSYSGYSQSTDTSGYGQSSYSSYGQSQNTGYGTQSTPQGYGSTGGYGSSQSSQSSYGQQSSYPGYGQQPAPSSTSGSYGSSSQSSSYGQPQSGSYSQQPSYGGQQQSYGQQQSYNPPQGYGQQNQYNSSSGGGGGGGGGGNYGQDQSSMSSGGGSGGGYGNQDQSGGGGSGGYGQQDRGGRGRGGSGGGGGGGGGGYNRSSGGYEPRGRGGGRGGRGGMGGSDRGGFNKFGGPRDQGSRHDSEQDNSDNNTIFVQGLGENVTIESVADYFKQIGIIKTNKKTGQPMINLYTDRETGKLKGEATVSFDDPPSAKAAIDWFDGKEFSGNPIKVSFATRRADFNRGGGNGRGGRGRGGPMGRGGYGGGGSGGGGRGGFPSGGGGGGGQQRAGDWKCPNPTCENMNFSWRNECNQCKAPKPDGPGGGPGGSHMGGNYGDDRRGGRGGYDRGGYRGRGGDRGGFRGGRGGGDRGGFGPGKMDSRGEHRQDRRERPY

B1: FUS RNA probe (GU-repeat) (ssRNA)
RNA: GGGGAAAAUUAAUGUGUGUGUGUGGAAAAUU
binding result: binds
